Molecular target: spike of variant B.1.351 v.1 on pseudovirus
Assay: cell-based or functional assay

Substance	neutralization IC50
CB6 (antibody)	> 10000 ng/mL
LY-CoV555 (antibody)	> 10000 ng/mL
